Measurements from the nanobody polyreactivity screen of Harvey et al. (2022).

Test: yeast display, Sf9 membrane polyspecificity reagent, FACS + sequencing; frameworks hold sequencing errors
In short: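 Genes from sorted yeast were amplified by colony PCR, read by MiSeq 2 × 250 sequencing and filtered on CDR length. These cells carried a synthetic nanobody library in Saccharomyces cerevisiae BJ5465 and were sorted by FACS into low and high (top ~1%) gates on anti-HA and streptavidin fluorescence. Polyreactivity is labelled according to the gate of origin.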

Sequence	polyreactivity (PSR sort gate)
QVQLVESGGGVGQAGGSLRLSCAASGSTFDRYTMGWYRQAPGKERELVAAISISGGSTYYADSVKGRFTISRDNAKNTVYLQMNSLKPEVTEVYYCAARLDTVTDYYYWGQGTQVTVSS	low polyreactivity
QVQLVESGGGVVQAGGSLRISCAASGSTFAANAMGWYRQAPGKERELVAAISTSGGRSYYADSVKGRFTISRDNAKNTLYLQMNSLKPEDSAGYYCAAYSRTSDRDFDYWGQGTQVTVSS	high polyreactivity
QVQLVESGGGVVQAGGSLRLSCAASARTFYRNAMGWYRQAPGKERELVAAITGSGGSTYYADSVKGRFTISRDNAKNTVYLQMNSLKPEDTAVSYCAAGTRIYNSWIRFDYWGQGTQVTVSS	high polyreactivity
QVQLVESGGGVVQAGGSLRLSCAASGFTFAQYAMGWYRQAPGKERELVATITRGGITYYADSVKGRFTISRDNAKNTVYLQMNSLKPEDTAVYYCAARVVPPYSRRDDYWGQGTQVTVSS	high polyreactivity
QVQLVESGGGVVQAGGSLRLSCAASGFTFVYNAMGWYRQAPGKEREFVAAISGRGGSTYYADSVKGRFTISRDNAKNTVYLQMNSLKPEDTAVYYCATTYSWYYVPYKTHIYYYWGQGTQVTVSS	low polyreactivity
QVQLVESGGGVVQAGGSLRLSCAASGITFSRYAMGWYRQAPGKERELVAAISGSGGRTYYADSVKGRFTISRDNAKNTVYLQMNSLKPEDTAVYYCARESSYYKYYYWGQGTQVTVSS	high polyreactivity
QVQLVESGGGVVQAGGSLRLSCAASGNIFAVYAMGWYREAPGKERELVAAIRKSGATTYYADSVKGRFTISRDNAKNTVYLQIHSLKPEDTAVYYCAARTFKDAGTAYGSWGQGTQVTVSS	high polyreactivity
QVQLVESGGGVVQAGGSLRLSCAASGRIIPYYAMGWYRPAPGTERELVAAISWTDGTTFYADSVKGRFTISRDNAKNTVYLQMNSLKPEDTAVYYCAASVYQDKGYDYWGQGTQVTVSS	low polyreactivity
QVQLVESGGGVVQAGGSLRLSCAASGRISDVYVMGWYRQAPGKERELVAAITWSGGDTYYADSVKGRFTISRDNAKNTVYLQMNSLKPEDTAVYYCNADTGKWGGNGWYEFDYWGQGTQVTVSS	low polyreactivity
QVQLVESGGGVVQAGGSLRLSCAASGRTFPYNPMGWYRQAPGKERELVAAISGRGGSTYYADSVKGRFTISRDNAKNTVYLQMNSLKPEVSAVYYCDARLPWSYYRTQGYNYWGQGTQVTVSS	high polyreactivity
QVQLVESGGGVVQAGGSLRLSCAASGRTSYWYAKGCYRQAPGKERELVADISWSGGSTYYADSVKGRFTISRDNAKNTVYLQMNSMKPEDTAVYYCNAAEQKYSIYYAFDTGPYDYWGQGTQVTVSS	low polyreactivity
QVQLVESGGGVVQAGGSLRLSCAASGSIFAGNAMGGSRQAPGKERELVAAITFSAGRTSYADSVKGRFTISRDNAKNTVYFQMNSLKPEDTAVYYCNALLTVRHVKSDYDYWGQGTQVTVSS	low polyreactivity
QVQLVESGGGVVQAGGSLRLSCAASGSIFRQNTMGWYRQAPGKERELVAAISSGGSTYYADSVKGRFTISRDNAKNTVYLQMNSPKPEDTAVYYCAAYHSFVWGDDYWGQGTQVTVSS	low polyreactivity
QVQLVESGGGVVQAGGSLRLSCAASGSILNNYAMGWYRPAPGKERELVAAISSSGGTNYADSVKGRFTISRDNAKNTVFLQMNSLKPEDTAVYYCNADVLDGGYVYWGQGTQVTVSS	low polyreactivity
QVQLVESGGGVVQAGGSLRLSCAASGSIYSQYAMGWYRQAPGTERELVASISRRGGRTYYADSVKGRFTISRDNAKNTVYLQMNSLKPEETAVYYCAALDTAGPYNTLDIYDHWGQGTQVTVSS	high polyreactivity
QVQLVESGGGVVQAGGSLRLSCAASGSTFGHNAMGWYRQAPGKERELVAVITSGGSTYYADSVKGRFTISRDNAKNTVYLQMNSLKPEDTAVYFCATDGGNSATVRYVASDYWGQGTQVTVSS	high polyreactivity
QVQLVESGGGVVQAGGSLRLSCAASGSTFHYYAMGWYRQAHGKERELVAAISYSSGSTYYADSVKGRVTISRDNAKNHVYLQMISLKPEDTAVYYCATESYSYYIHTTYYYWGQGTQVTLSS	low polyreactivity
QVQLVESGGGVVQAGGSLRLSCAASGSTFYLYDMGWYRQEPGKERELVATITSGTSTTYADSVKGRYTISRDNAKNTVYLQMNSLKPEDTAVYYCNATDVGIITVGYGHGGYYWGQGTQVTVSS	low polyreactivity
QVQLVESGGGVVQAGGSLRLSCAASGSTLARYAMGWYRQSPGKERELVAAISSDGRTYYADSVKGRFTISRDNAKNTVYLQMNSLKPEDTAVYYCSAVGKPGVYQEGDYWGQGTQVTVSS	high polyreactivity
QVQLVESGGGVVQAGGSLRLSCAASGYIFFANAMGWYRQAPGKERELVAAISSDGRTYYADSVKGRFTISRDNANNTVYLQMNSLKPEDTAVYYSADYFSGLTYGYYVAGYDYWGQGTQVTVSS	low polyreactivity
QVQLVESGGGVVQAGGSLRLSCAATGRIFGVYAMGWYRQAPGKERELVAAISSTGGSTYYADSVKGRFTISRDNAKNTVYLQMNSLKPEDTAVYYCEYDYWGQGSQVTVSS	low polyreactivity
QVQLVESGGGVVQAGGSLRLSCAGSGFTFPSYAMGWYRQAPGKERELVAAISVGGGSTYYADSVKGRFTISRDKAKNTVYLQMNSLKPEDTAVYYCNADYWYWVWLVGGNVDLDYWGQGTQVTVSS	high polyreactivity

Sequence	polyreactivity (PSR sort gate)
QVQLVESGGGVVQAGGSLRLSCAGSGRTFPYYAVGWYRQAPGKERELVAVISSADSTNYADSVKGRFTISRDNAKNTVYLQMNSLKPEDTAVYYCADDAVYYGDDYWGQGTQVTVSS	low polyreactivity
QVQLVESGGGVVQAGGSLRLSSAASGRIIRYYTMGWYRQAPGKERELVAAIRTYGGRTYYADSVKGRFTISRDNAKNSVYLQMNSLKPEDTAVYYCAADGGRPRYDSWGQGTQVTVSS	high polyreactivity
QVQLVESGGGVVQAGGSLRLTCAASGRTCPIYAMGWYRQAPGKERELVATITWNDGNTYYADSVKGRFTISRDNAKNTVYLQMNCLKPEDTAVYYCAAKGGWPWHYHYQKNSEYDYWGQGTQVTVSS	low polyreactivity
QVQLVESGGGVVQAGGSLRLTCAASVSIFASNAMGWYRQAPGKEREFVAAITWRTDRTYYADSVKGRFTISRDNAKNTVYLQMNSLKPEDTAVYYCAADLLPLYDYWGQGTQVTVSS	high polyreactivity
QVQLVESGGGVVQAGGTLRLSCAASGINFIDNTMGWYRQAPGKEREFVATISANSDGTYYADSVKRRFTISRDNAKKTVYLQMNSLKPEETAVYYWGQGTQVTVSS	low polyreactivity
QVQLVESGGGVVQAGRSLRLSCAASGSTFQPYAMGSYRQAPGKEREFVATISGSAGSTYYADSVKGSFKISRDNAKNTVYLQMTSLKPEDTAVYYCNADSGWFGYDYWGQGTQVTVSS	low polyreactivity
QVQLVESGGGYVQAGGSLRLSCAASGSTFRYYAMGWYRQAPGKEREFVASITQSGGSTYYADSVMGRFTISRDNAKNTVYLQMISLKPEDTAVYYCAADVYSWVYLMDYWGQGTQVTVSS	low polyreactivity
QVQLVESGGLLVQAGGSIRLRCDASGIILRGYSLGWYRQAPGKERELVASISRGGSTNYADSVKGRFTISRDNAKTTVYLQMNSLKPEDTAVYSCNARGCNGRSDYDYWGLGTQVTVSS	high polyreactivity
QVQLVESGGLLVQAGGSLRLSCAASGRIFTHNATGWYRQAPGKERELVAAISYSGVSTYYADSVKGRFTISRDNAKNTVYLQMNSLKPEDTAVYYCARRYWYPDAFYRYDYWGQGTQVTVSS	low polyreactivity
QVQLVESGGLLVQGGGILRLSCAASGRILQGYAMGWSRQAPGKERELVDAISSGGRTYYADSVKGRFTISRDNAKNNYYLQMNSLNPDDTAVYYCAAGECWRIHAYSDDFWVQGTQVTVSS	high polyreactivity
QVQLVESGGRLDQAGGSLRLSCAASASTFKEYPMGWYRQAPGKERELVAAISKSGDSTYYADSVKGRFTISRDNAKNTVYLQMNSLKPEDTAVYYCAADTFSFRWSDYWGLGTQVTVSS	low polyreactivity
QVQLVESGGRLFQAGGSLRLSCAASGRTWGYEMGWYRQATGKERELVAAIRNGASTYYADSVKGRFTISRDNAKKTVYFHMNSRKPEDTAVYYCDADYTVRVVATYDYWGQGTQVTVSS	low polyreactivity
QVQLVESGGRLGQAGGSLRISCAASGGTFWYYDMGWYRQAPGKERELVAAISSGGNTYYADSVKGRFTISRDNAKITVYLQMNSLKPEDTAVYYCAALPKYGSYYYYPPFDYDYWGQGTQVTVSS	low polyreactivity
QVQLVESGGRLLQAGGSLRLSCAASGRTFRRYAMGWYRPAPGKERELLAAISASGGSTYYADSVKGRFTISRDNAKNTVYLQMNSLKPEDTAVYYCAADWYSYLHGTKYGYWGQGTQVTVSS	high polyreactivity
QVQLVESGGRLVQAGGILRLSCAASGRIFAYYAMGWYRHSPGKERELVAAINWSGDGTNYADSVKGRFTISRDNEKNSVYLQMNSLKPEDTAVYYWNADWTSYGFGTRLDYWGQGTQVTVSS	low polyreactivity
QVQLVESGGRLVQAGGRLRLSCAASGRIFRYYTLGWYRQAPGKERELVAAITRRGGITNYADSVKGRFTISRDNAKNTVYLQMNSLKPEDTAVYYCAAKYVSQGYDYWGQGTQVTVSS	high polyreactivity
QVQLVESGGRLVQAGGSHRLRCAASGFIFKHNAMGWYRQAPGQEREFVARISWSGGSTRYADSVKGRFTISRDNAKNTVYLQMNSLKPEDTAVYYCAADQLGNDMDYWGQGTQVTVSS	low polyreactivity
QVQLVESGGRLVQAGGSLRISCAASGSTFNGNVIVWSRQAPGKERELVAGISKSGGTTYYADSVKGRFTISRDNAKNTVYLQMNSLKPEDTAVYYCAARGRVRYYPQYDYWGQGTQVTVSS	high polyreactivity
QVQLVESGGRLVQAGGSLRLICAASGGIFGFNAMGWYRQAPGKERELVADISDGVRTNYADSVKWRFTISRDNAKNTVFLQMNSLKPEDTAVNYCATDGVYYVDGSWTLGYWGLGTQVTVSS	low polyreactivity
QVQLVESGGRLVQAGGSLRLICAASGITYYEYAMGWYRQAPGKERELVAAITSGGTTNYADSVNGRFTISLDNAKNTVYLQMNSLKPEDTAVYFCAADLIGYSYPDEYYGKGEYDYWGQGTQVTVSS	low polyreactivity
QVQLVESGGRLVQAGGSLRLICAASGRIFKQYAMGWYRQSPGKERELVARITGSGSRTYYADSVKGRFTISRDNAKITVYIQMKSLKPEDTAVYYCAKDRYYGKRGGAWYDYWGQGTQVTVSS	low polyreactivity
